Data on 2 molecules can be found in PMC11952846, “The sterol-regulating human ARV1 binds cholesterol and phospholipids through its conserved ARV1 homology domain” (The Journal of Biological Chemistry, 2025).

Data set [1] deals with the molecule itself. Put plainly: sucrose density gradient centrifugation; 2.5 to 25% sucrose gradient in PBS, 132,000g for 19 h; fractions by SDS-PAGE and western with anti-ARV1; markers ovalbumin (50 kDa), bovine serum albumin (77 kDa), phosphorylase (103 kDa).
Data set [2] concerns the target T1, 6XHIS-ARV1 (full-length human ARV1, N-terminal 6XHIS tag) (human, UniProt Q9H2C2 1-271).
T1 construct: human ARV1, 271 amino acids, full length, expressed from pET-28a(+)-6XHIS-ARV1; also called hARV1; not shown: 6XHIS, N-terminal, kept
T1 sequence (looked up): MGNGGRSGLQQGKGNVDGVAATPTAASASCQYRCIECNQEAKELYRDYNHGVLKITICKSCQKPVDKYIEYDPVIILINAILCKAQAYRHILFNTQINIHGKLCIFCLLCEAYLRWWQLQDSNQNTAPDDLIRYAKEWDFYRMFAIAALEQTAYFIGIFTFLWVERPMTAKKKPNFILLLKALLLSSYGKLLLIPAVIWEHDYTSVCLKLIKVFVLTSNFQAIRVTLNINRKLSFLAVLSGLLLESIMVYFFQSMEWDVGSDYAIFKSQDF
Kind of data set: far-Western, overlay or dot blot; GST, GST-ARV1 truncations and 6XHIS-ARV1 dotted onto nitrocellulose, incubated with 6XHIS-ARV1 protein, probed with anti-6XHIS (and anti-GST) antibodies. The conditions noted are these: both partners purified.

As a reminder, the stoichiometry N is the number of molecules, sites or subunits per partner or assembly.

B1: E. coli expressed purified full-length ARV1 (sucrose density gradient) (natural protein, human, UniProt Q9H2C2 1-271, looked up)
chain: MGNGGRSGLQQGKGNVDGVAATPTAASASCQYRCIECNQEAKELYRDYNHGVLKITICKSCQKPVDKYIEYDPVIILINAILCKAQAYRHILFNTQINIHGKLCIFCLLCEAYLRWWQLQDSNQNTAPDDLIRYAKEWDFYRMFAIAALEQTAYFIGIFTFLWVERPMTAKKKPNFILLLKALLLSSYGKLLLIPAVIWEHDYTSVCLKLIKVFVLTSNFQAIRVTLNINRKLSFLAVLSGLLLESIMVYFFQSMEWDVGSDYAIFKSQDF
notes: human ARV1, full length; detected with anti-ARV1 antibodies; also called purified ARV1; source: E. coli, purified
For B1, in data set [1], the “stoichiometry N” value is 2.

B2: GST-ARV1-N90 (domain or fragment, human, UniProt Q9H2C2 1-90, looked up)
chain: MGNGGRSGLQQGKGNVDGVAATPTAASASCQYRCIECNQEAKELYRDYNHGVLKITICKSCQKPVDKYIEYDPVIILINAILCKAQAYRH
notes: human ARV1, amino-terminal 90 amino acids, expressed from pGEX-4T1-GST-N90; also called GST-N90; source: E. coli BL21, purified (glutathione beads); not shown: GST, N-terminal, kept
Regarding B2, the binding result in data set [2] is on record as “binds”.
